Measured values as given in patent US20040229265A1.

Columns and labels:
Rev34-50 peptide (HIV-1) = conditions: CITED natural ligand affinity quoted for comparison, method not stated; cited from earlier work
[1] = test system: Rev peptide (Rev34-50, RhdRev) (HIV-1); test: FP; conditions: 10 nM tracer titrated with RNA, 85 mM NaCl, 2 mM KCl, 0.5 mM CaCl2, 0.5 mM MgCl2, 10 mM HEPES pH 7.5
[2] = target: CXCR4 (chemokine receptor CXCR-4) on PM1 cells; test: flow cytometry, PE-12G5 alone on PM1 cells, 30 min at 4° C.
Chain of CXCR4 (chemokine receptor CXCR-4) on PM1 cells (P61073 whole entry): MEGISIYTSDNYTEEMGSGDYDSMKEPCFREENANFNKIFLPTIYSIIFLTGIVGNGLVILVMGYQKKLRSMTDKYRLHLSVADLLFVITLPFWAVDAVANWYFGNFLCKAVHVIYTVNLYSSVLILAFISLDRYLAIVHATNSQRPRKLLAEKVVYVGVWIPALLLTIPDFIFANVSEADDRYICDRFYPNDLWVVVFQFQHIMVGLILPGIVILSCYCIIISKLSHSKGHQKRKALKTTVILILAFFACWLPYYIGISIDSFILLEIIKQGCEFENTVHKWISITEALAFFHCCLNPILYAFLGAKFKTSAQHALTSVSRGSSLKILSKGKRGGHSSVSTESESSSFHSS

[3] = target: CXCR4 (chemokine receptor CXCR-4) on PM1 cells; test: flow cytometry, PE-conjugated isotype control on PM1 cells (non-specific fluorescence)
Tat49-57 peptide (HIV-1) = conditions: CITED natural ligand affinity quoted for comparison, method not stated; cited from earlier work

RRE IIB RNA
Kd (Rev34-50 peptide (HIV-1)): 40 nM | Kd ([1]; text gives 16 nM): 16.6 nM

anti-CXCR4 mAb, 12G5 (PharMingen, San Diego, Calif.) conjugated to phycoerithrine (PE) (antibody)
MFI (median fluorescence intensity) [2]: 451 MFI

PE-conjugated isotype control mAb (antibody)
MFI (median fluorescence intensity) [3]: 30 MFI

TAR RNA
Kd (Tat49-57 peptide (HIV-1)): 12 nM | Kd ([1]; table unit taken from text (7 nM)): 7.3 nM
